Experimental findings from article PMC8310280 are described below.

In the data set the target is Shiftless (SHFL) WT (human) (UniProt Q9NUL5). Description: EMSA.
Sequence of Shiftless (SHFL) WT (human) (Q9NUL5 whole entry): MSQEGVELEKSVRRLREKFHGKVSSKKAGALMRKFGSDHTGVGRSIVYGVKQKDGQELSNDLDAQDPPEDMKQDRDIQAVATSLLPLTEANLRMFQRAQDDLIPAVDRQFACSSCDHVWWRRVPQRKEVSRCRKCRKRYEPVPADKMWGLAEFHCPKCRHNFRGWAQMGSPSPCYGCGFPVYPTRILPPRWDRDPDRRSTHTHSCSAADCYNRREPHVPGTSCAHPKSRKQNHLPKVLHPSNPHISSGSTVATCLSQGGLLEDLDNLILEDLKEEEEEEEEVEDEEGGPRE

For the substance “GACCCUAGAUGACUAGGGAGGUCAGGGACACGAGCCCCCCCCUGAACCCAGGAUAACCCUCAAAGUCGGGGGGCAACCCGUCAC [MuLV S1]”, the Kd is 0.5 µM.
With “GACCCUAGAUGACUAGGGAGGUCAGGGUCAGGAGCCCCCCCCUGAACCCAGGAUAACCCUCAAAGUCGGGGGGCAACCCGUCAC [MuLV RT signal]” the figure was 0.5 µM.
With IBVmax (wild-type pseudoknot), the dissociation constant Kd turned out to be 0.5 µM.
With control RNA (SARS-CoV-2 antigenome) the figure was 0.5 µM.
